Measurements as given in patent publication US20220010021A1 (Sanofi, published 2022).

T1: human beta-Klotho (KLB) (human, UniProt Q86Z14 53-997)
T1 construct: also called human KLB
T1 sequence (looked up): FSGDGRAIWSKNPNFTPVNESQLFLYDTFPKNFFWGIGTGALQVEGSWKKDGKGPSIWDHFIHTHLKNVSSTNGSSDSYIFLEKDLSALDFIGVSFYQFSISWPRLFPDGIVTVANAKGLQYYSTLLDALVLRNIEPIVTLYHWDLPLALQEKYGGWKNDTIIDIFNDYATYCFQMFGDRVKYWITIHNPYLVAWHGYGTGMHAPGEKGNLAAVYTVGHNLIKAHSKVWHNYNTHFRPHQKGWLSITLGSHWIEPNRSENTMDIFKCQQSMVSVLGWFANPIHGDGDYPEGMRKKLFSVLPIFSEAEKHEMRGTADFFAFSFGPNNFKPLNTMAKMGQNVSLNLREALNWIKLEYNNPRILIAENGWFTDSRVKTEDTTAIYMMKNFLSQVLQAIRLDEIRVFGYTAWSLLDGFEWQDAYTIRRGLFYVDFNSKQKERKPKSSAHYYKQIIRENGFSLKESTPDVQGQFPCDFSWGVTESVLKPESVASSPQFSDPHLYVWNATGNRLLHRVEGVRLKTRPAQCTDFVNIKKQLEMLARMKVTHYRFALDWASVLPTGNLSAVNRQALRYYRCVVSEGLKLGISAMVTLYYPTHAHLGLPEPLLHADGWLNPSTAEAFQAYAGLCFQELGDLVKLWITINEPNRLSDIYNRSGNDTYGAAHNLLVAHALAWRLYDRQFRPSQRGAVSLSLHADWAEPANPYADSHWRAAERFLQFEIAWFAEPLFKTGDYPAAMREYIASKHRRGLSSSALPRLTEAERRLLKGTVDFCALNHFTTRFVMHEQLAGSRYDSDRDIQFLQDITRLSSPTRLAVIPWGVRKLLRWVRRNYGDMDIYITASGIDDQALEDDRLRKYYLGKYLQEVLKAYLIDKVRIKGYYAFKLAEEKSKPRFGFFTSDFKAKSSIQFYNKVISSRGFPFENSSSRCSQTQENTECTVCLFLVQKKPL


Key:
human beta-Klotho (KLB) = biological target: T1, human beta-Klotho (KLB); assay: BLI off-rate screen (Octet), Ab captured via Fc;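 note: antibody supernatants applied at 25 µg/mL, dissociation monitored over 1800 s in D-PBS with 0.1% BSA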
[1] = biological target: human FGFR1c/KLB cell surface receptor complex on iLite FGF21 reporter cells (human, UniProt P11362 22-822; Q86Z14 1-1044); assay: cell-based or functional assay; for Mean E max (%): reference of the scale not given here
Chain of human FGFR1c/KLB cell surface receptor complex on iLite FGF21 reporter cells (P11362 22-822, chain 1 of 2): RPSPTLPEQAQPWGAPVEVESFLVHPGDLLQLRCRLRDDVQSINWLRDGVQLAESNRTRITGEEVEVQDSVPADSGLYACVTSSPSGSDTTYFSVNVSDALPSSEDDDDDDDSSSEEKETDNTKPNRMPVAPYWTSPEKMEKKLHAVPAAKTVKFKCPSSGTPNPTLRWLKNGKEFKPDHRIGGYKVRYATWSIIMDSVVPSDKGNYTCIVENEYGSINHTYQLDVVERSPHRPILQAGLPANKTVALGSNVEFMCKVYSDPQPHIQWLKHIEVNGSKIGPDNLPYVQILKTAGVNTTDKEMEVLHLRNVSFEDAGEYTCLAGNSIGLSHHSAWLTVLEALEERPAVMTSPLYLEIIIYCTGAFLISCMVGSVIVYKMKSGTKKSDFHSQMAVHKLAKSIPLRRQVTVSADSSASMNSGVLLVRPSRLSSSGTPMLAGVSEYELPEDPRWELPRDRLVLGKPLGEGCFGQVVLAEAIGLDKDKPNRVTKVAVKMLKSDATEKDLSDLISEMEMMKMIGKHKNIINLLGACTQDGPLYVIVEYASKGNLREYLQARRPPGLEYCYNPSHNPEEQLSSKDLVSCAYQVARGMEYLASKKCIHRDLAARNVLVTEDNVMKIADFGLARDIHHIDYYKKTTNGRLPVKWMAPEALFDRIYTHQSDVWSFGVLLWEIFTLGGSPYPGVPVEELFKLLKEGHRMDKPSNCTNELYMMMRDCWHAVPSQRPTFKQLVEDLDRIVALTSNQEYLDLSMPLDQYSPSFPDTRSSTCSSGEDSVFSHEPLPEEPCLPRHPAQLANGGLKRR
Chain of human FGFR1c/KLB cell surface receptor complex on iLite FGF21 reporter cells (Q86Z14 whole entry, chain 2 of 2): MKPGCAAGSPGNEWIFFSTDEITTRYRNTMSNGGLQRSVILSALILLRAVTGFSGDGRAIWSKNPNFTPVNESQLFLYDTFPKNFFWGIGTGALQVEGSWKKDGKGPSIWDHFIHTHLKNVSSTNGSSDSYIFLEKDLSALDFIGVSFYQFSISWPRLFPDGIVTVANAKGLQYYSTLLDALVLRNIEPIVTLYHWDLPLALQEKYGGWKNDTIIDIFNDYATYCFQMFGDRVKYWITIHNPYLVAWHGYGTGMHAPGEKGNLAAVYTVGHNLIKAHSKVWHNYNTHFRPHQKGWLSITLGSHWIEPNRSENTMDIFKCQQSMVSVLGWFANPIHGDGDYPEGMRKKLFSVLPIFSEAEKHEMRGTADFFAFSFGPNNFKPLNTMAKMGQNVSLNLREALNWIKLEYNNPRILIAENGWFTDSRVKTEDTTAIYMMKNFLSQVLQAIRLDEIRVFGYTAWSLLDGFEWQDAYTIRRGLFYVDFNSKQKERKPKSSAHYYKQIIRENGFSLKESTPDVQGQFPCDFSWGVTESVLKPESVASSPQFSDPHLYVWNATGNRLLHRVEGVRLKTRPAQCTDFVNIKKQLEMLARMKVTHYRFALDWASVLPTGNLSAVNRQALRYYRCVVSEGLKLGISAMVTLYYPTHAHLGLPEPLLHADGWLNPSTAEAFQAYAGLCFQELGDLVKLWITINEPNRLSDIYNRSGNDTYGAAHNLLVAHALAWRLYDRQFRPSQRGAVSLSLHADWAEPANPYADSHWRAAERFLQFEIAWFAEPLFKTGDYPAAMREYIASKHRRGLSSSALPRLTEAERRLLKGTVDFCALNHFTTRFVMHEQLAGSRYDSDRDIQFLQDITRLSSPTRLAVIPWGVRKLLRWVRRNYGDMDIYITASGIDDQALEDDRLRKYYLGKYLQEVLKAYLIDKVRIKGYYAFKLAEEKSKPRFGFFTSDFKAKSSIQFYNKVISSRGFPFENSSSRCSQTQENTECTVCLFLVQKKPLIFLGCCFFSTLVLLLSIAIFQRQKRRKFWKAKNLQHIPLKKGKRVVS

| Binder | koff (human beta-Klotho (KLB)) | Mean E max (%) [1] | Mean EC50 [1] |
| --- | --- | --- | --- |
| 16H7 variant, light chain N26T (antibody, human IgG4 S228P, lambda, V domains shown, IgG4 backbone) VH: not shown VL: SYVLTQPPSVSVAPGQTARITCGGNTIGSESVHWYQQKPGQAPVLVVYDDSDRPSGIPERFSGSNSGNTATLTISRVEAGDEADYYCQVWDGNSDHVVFGGGTKLTVLG | 4.4e-05 s⁻¹ | 105% | 0.143 nM |
| 16H7 variant, light chain D52N (antibody, human IgG4 S228P, lambda, V domains shown, IgG4 backbone) VH: not shown VL: SYVLTQPPSVSVAPGQTARITCGGNNIGSESVHWYQQKPGQAPVLVVYDDSNRPSGIPERFSGSNSGNTATLTISRVEAGDEADYYCQVWDGNSDHVVFGGGTKLTVLG | 6.9e-07 s⁻¹ | 115% | 0.124 nM |
| 16H7 variant, light chain D52I (antibody, human IgG4 S228P, lambda, V domains shown, IgG4 backbone) VH: not shown VL: SYVLTQPPSVSVAPGQTARITCGGNNIGSESVHWYQQKPGQAPVLVVYDDSIRPSGIPERFSGSNSGNTATLTISRVEAGDEADYYCQVWDGNSDHVVFGGGTKLTVLG | 2.8e-05 s⁻¹ | 110% | 0.14 nM |
| 16H7 variant, light chain G23F (antibody, human IgG4 S228P, lambda, V domains shown, IgG4 backbone) VH: not shown VL: SYVLTQPPSVSVAPGQTARITCFGNNIGSESVHWYQQKPGQAPVLVVYDDSDRPSGIPERFSGSNSGNTATLTISRVEAGDEADYYCQVWDGNSDHVVFGGGTKLTVLG | 5e-05 s⁻¹ | 98% | 0.109 nM |
| 16H7 variant, light chain G23I (antibody, human IgG4 S228P, lambda, V domains shown, IgG4 backbone) VH: not shown VL: SYVLTQPPSVSVAPGQTARITCIGNNIGSESVHWYQQKPGQAPVLVVYDDSDRPSGIPERFSGSNSGNTATLTISRVEAGDEADYYCQVWDGNSDHVVFGGGTKLTVLG | 2.9e-05 s⁻¹ | 99% | 0.128 nM |
| 16H7 variant, light chain D52M (antibody, human IgG4 S228P, lambda, V domains shown, IgG4 backbone) VH: not shown VL: SYVLTQPPSVSVAPGQTARITCGGNNIGSESVHWYQQKPGQAPVLVVYDDSMRPSGIPERFSGSNSGNTATLTISRVEAGDEADYYCQVWDGNSDHVVFGGGTKLTVLG | 2.4e-05 s⁻¹ | 105% | 0.144 nM |
| 16H7 variant, light chain D52S (antibody, human IgG4 S228P, lambda, V domains shown, IgG4 backbone) VH: not shown VL: SYVLTQPPSVSVAPGQTARITCGGNNIGSESVHWYQQKPGQAPVLVVYDDSSRPSGIPERFSGSNSGNTATLTISRVEAGDEADYYCQVWDGNSDHVVFGGGTKLTVLG | 4e-05 s⁻¹ | 108% | 0.098 nM |
| 16H7 variant, light chain D52Y (antibody, human IgG4 S228P, lambda, V domains shown, IgG4 backbone) VH: not shown VL: SYVLTQPPSVSVAPGQTARITCGGNNIGSESVHWYQQKPGQAPVLVVYDDSYRPSGIPERFSGSNSGNTATLTISRVEAGDEADYYCQVWDGNSDHVVFGGGTKLTVLG | 9.1e-05 s⁻¹ | 102% | 0.11 nM |
| 16H7 variant, light chain D52R (antibody, human IgG4 S228P, lambda, V domains shown, IgG4 backbone) VH: not shown VL: SYVLTQPPSVSVAPGQTARITCGGNNIGSESVHWYQQKPGQAPVLVVYDDSRRPSGIPERFSGSNSGNTATLTISRVEAGDEADYYCQVWDGNSDHVVFGGGTKLTVLG | 2.9e-05 s⁻¹ | 96% | 0.091 nM |
| 16H7 variant, light chain D52V (antibody, human IgG4 S228P, lambda, V domains shown, IgG4 backbone) VH: not shown VL: SYVLTQPPSVSVAPGQTARITCGGNNIGSESVHWYQQKPGQAPVLVVYDDSVRPSGIPERFSGSNSGNTATLTISRVEAGDEADYYCQVWDGNSDHVVFGGGTKLTVLG | 6.9e-05 s⁻¹ | 114% | 0.125 nM |
| 16H7 variant, light chain D52T (antibody, human IgG4 S228P, lambda, V domains shown, IgG4 backbone) VH: not shown VL: SYVLTQPPSVSVAPGQTARITCGGNNIGSESVHWYQQKPGQAPVLVVYDDSTRPSGIPERFSGSNSGNTATLTISRVEAGDEADYYCQVWDGNSDHVVFGGGTKLTVLG | 1.8e-05 s⁻¹ | 100% | 0.109 nM |
| 16H7 variant, light chain G23D (antibody, human IgG4 S228P, lambda, V domains shown, IgG4 backbone) VH: not shown VL: SYVLTQPPSVSVAPGQTARITCDGNNIGSESVHWYQQKPGQAPVLVVYDDSDRPSGIPERFSGSNSGNTATLTISRVEAGDEADYYCQVWDGNSDHVVFGGGTKLTVLG | 2.2e-05 s⁻¹ | 108% | 0.104 nM |
| 16H7 variant, light chain G23H (antibody, human IgG4 S228P, lambda, V domains shown, IgG4 backbone) VH: not shown VL: SYVLTQPPSVSVAPGQTARITCHGNNIGSESVHWYQQKPGQAPVLVVYDDSDRPSGIPERFSGSNSGNTATLTISRVEAGDEADYYCQVWDGNSDHVVFGGGTKLTVLG | 5.2e-06 s⁻¹ | 95% | 0.096 nM |
| 16H7 variant, light chain D52K (antibody, human IgG4 S228P, lambda, V domains shown, IgG4 backbone) VH: not shown VL: SYVLTQPPSVSVAPGQTARITCGGNNIGSESVHWYQQKPGQAPVLVVYDDSKRPSGIPERFSGSNSGNTATLTISRVEAGDEADYYCQVWDGNSDHVVFGGGTKLTVLG | 9.2e-05 s⁻¹ | 101% | 0.117 nM |
| 16H7 variant, light chain D52Q (antibody, human IgG4 S228P, lambda, V domains shown, IgG4 backbone) VH: not shown VL: SYVLTQPPSVSVAPGQTARITCGGNNIGSESVHWYQQKPGQAPVLVVYDDSQRPSGIPERFSGSNSGNTATLTISRVEAGDEADYYCQVWDGNSDHVVFGGGTKLTVLG | 2.7e-05 s⁻¹ | 101% | 0.107 nM |
| 16H7 variant, light chain D52A (antibody, human IgG4 S228P, lambda, V domains shown, IgG4 backbone) VH: not shown VL: SYVLTQPPSVSVAPGQTARITCGGNNIGSESVHWYQQKPGQAPVLVVYDDSARPSGIPERFSGSNSGNTATLTISRVEAGDEADYYCQVWDGNSDHVVFGGGTKLTVLG | 4.8e-05 s⁻¹ | 101% | 0.163 nM |
| 16H7 variant, light chain D52H (antibody, human IgG4 S228P, lambda, V domains shown, IgG4 backbone) VH: not shown VL: SYVLTQPPSVSVAPGQTARITCGGNNIGSESVHWYQQKPGQAPVLVVYDDSHRPSGIPERFSGSNSGNTATLTISRVEAGDEADYYCQVWDGNSDHVVFGGGTKLTVLG | 3.6e-05 s⁻¹ | 97% | 0.109 nM |
| 16H7 variant, light chain D52F (antibody, human IgG4 S228P, lambda, V domains shown, IgG4 backbone) VH: not shown VL: SYVLTQPPSVSVAPGQTARITCGGNNIGSESVHWYQQKPGQAPVLVVYDDSFRPSGIPERFSGSNSGNTATLTISRVEAGDEADYYCQVWDGNSDHVVFGGGTKLTVLG | 7.9e-06 s⁻¹ | 102% | 0.105 nM |
| 16H7 variant, light chain G23A (antibody, human IgG4 S228P, lambda, V domains shown, IgG4 backbone) VH: not shown VL: SYVLTQPPSVSVAPGQTARITCAGNNIGSESVHWYQQKPGQAPVLVVYDDSDRPSGIPERFSGSNSGNTATLTISRVEAGDEADYYCQVWDGNSDHVVFGGGTKLTVLG | 4e-05 s⁻¹ | 107% | 0.122 nM |
| 16H7 variant, light chain G23C (antibody, human IgG4 S228P, lambda, V domains shown, IgG4 backbone) VH: not shown VL: SYVLTQPPSVSVAPGQTARITCCGNNIGSESVHWYQQKPGQAPVLVVYDDSDRPSGIPERFSGSNSGNTATLTISRVEAGDEADYYCQVWDGNSDHVVFGGGTKLTVLG | 4.1e-05 s⁻¹ | 108% | 0.087 nM |
| 16H7 variant, light chain D52G (antibody, human IgG4 S228P, lambda, V domains shown, IgG4 backbone) VH: not shown VL: SYVLTQPPSVSVAPGQTARITCGGNNIGSESVHWYQQKPGQAPVLVVYDDSGRPSGIPERFSGSNSGNTATLTISRVEAGDEADYYCQVWDGNSDHVVFGGGTKLTVLG | 3.7e-05 s⁻¹ | 109% | 0.125 nM |
| 16H7 variant, light chain D52L (antibody, human IgG4 S228P, lambda, V domains shown, IgG4 backbone) VH: not shown VL: SYVLTQPPSVSVAPGQTARITCGGNNIGSESVHWYQQKPGQAPVLVVYDDSLRPSGIPERFSGSNSGNTATLTISRVEAGDEADYYCQVWDGNSDHVVFGGGTKLTVLG | 5.7e-05 s⁻¹ | 106% | 0.107 nM |
| 16H7 variant, light chain D52E (antibody, human IgG4 S228P, lambda, V domains shown, IgG4 backbone) VH: not shown VL: SYVLTQPPSVSVAPGQTARITCGGNNIGSESVHWYQQKPGQAPVLVVYDDSERPSGIPERFSGSNSGNTATLTISRVEAGDEADYYCQVWDGNSDHVVFGGGTKLTVLG | < 1e-05 s⁻¹ | 123% | 0.114 nM |
